Measured values reported in patent publication US20250263462A1 (US Dept. of Health and Human Services, published 2025).

Tests used:
Test in all cases: cell-based or functional assay
[1] = target: HLA-A11 on COS7/A11 cells expressing the KRAS G12V minigene (23-mer SEQ ID NO: 120) (human, UniProt A*11:01)
[2] = target: HLA-A11 on COS7/A11 cells expressing the WT KRAS minigene (23-mer SEQ ID NO: 118) (human, UniProt A*11:01)
[3] = target: HLA-A11 on COS7/A11 cells expressing the KRAS G12D minigene (23-mer SEQ ID NO: 119) (human, UniProt A*11:01)
[4] = target: KRAS G12V 10-mer peptide … (SEQ ID NO: 33) presented by HLA-A11 on pulsed cells (human, UniProt A*11:01)
[5] = target: T1, WT KRAS 10-mer peptide (SEQ ID NO: 30) presented by HLA-A11 on pulsed cells (human, UniProt A*11:01)
[6] = target: T2, KRAS G12D 10-mer peptide … (SEQ ID NO: 2) presented by HLA-A11 on pulsed cells (human, UniProt A*11:01)
[7] = target: T3, KRAS G12D 9-mer peptide KRAS8-16 … (SEQ ID NO: 34) presented by HLA-A11 on pulsed cells (human, UniProt A*11:01)
[8] = target: T1, WT KRAS 10-mer peptide (SEQ ID NO: 30) …; remark: listed apart in the source
[9] = target: T2, KRAS G12D 10-mer peptide … (SEQ ID NO: …); remark: listed apart in the source
[10] = target: WT KRAS 9-mer peptide (SEQ ID NO: 31) presented by HLA-A11 on pulsed cells (human, UniProt A*11:01)
[11] = target: T3, KRAS G12D 9-mer peptide KRAS8-16 … (SEQ …); remark: listed apart in the source
[12] = target: T1, WT KRAS 10-mer peptide (SEQ ID NO: 30) …; remark: listed apart in the source

B1: TRAV3-3*01 + TRBV13-1*02 TCR chain pair (TCR, V domains shown)
V domain 1: GEQVEQRPPHLSVREGDSAVITCTYTDPNSYYFFWYKQEPGASLQLLMKVFSSTEINEGQGFTVLLNKKDKRLSLNLTAAHPGDSAAYFCAVSGGTNSAGNKLTFGIGTRVLVRP
V domain 2: EAAVTQSPRNKVTVTGGNVTLSCRQTNSHNYMYWYRQDTGHGLRLIHYSYGAGNLQIGDVPDGYKATRTTQEDFFLLLELASPSQTSLYFCASASWGGYAEQFFGPGTRLTVLE
Q: For B1, which “IFN-γ, PBL + Cos7/A11 minigene transfectant” value [1] is on record?
A: The value was 61 pg/mL.

Q: What about the “IFN-γ, PBL + Cos7/A11 minigene transfectant” value [2] of the same binder?
A: The value was 51 pg/mL.

Q: What about the “IFN-γ, PBL + Cos7/A11 minigene transfectant” value [3] of the same binder?
A: The value was 56 pg/mL.

Q: And the “IFN-γ, PBL + pulsed Cos7/A11” value [4]?
A: The value was 44 pg/mL.

Q: And the “IFN-γ, PBL + pulsed Cos7/A11” value [5]?
A: Its value is 47 pg/mL.

Q: And the “IFN-γ, PBL + pulsed Cos7/A11” value [6]?
A: Its value is 49 pg/mL.

B2: TRAV3-3*01/TRBV4*01 murine anti-KRAS G12V TCR (SEQ ID NOs: 133 and 134) (TCR, V domains shown)
V domain 1: B1 V domain 1
V domain 2: ETAVFQTPNYHVTQVGNEVSFNCKQTLGHDTMYWYKQDSKKLLKIMFSYNNKQLIVNETVPRRFSPQSSDKAHLNLRIKSVEPEDSAVYLCASSRDWGPAEQFFGPGTRLTVLE
Q: How did the “IFN-γ, PBL + Cos7/A11 pulsed at 10^-6 (10^× µM)” value (“IFN-γ … at 10^-6 (10^× µM)” below) [7] turn out when B2 was run?
A: Its value is 47 pg/mL.

Q: And the “IFN-γ, PBL + Cos7/A11 pulsed at 10^-7 (10^× µM)” value (“IFN-γ … at 10^-7 (10^× µM)” below) [7]?
A: Its value is 48 pg/mL.

Q: What about the “IFN-γ, PBL + Cos7/A11 pulsed at 10^-8 (10^× µM)” value (“IFN-γ … at 10^-8 (10^× µM)” below) [7] of the same binder?
A: Its value is 49 pg/mL.

Q: What about the “IFN-γ, PBL + Cos7/A11 pulsed at 10^-9 (10^× µM)” value (“IFN-γ … at 10^-9 (10^× µM)” below) [7] of the same binder?
A: Its value is 44 pg/mL.

Q: And the “IFN-γ, PBL + Cos7/A11 pulsed at 10^-10 (10^× µM)” value (“IFN-γ … at 10^-10 (10^× µM)” below) [7]?
A: The value was 52 pg/mL.

Q: What about the “IFN-γ, PBL + Cos7/A11 pulsed at 10^-11 (10^× µM)” value (“IFN-γ … at 10^-11 (10^× µM)” for short) [7] of the same binder?
A: Its value is 49 pg/mL.

Q: What about the “IFN-γ, PBL + Cos7/A11 pulsed at 10^-12 (10^× µM)” value (from here on “IFN-γ … at 10^-12 (10^× µM)”) [7] of the same binder?
A: Its value is 55 pg/mL.

Q: And the “IFN-γ, PBL + Cos7/A11 pulsed at 10^-13 (10^× µM)” value (from here on “IFN-γ … at 10^-13 (10^× µM)”) [7]?
A: Its value is 52 pg/mL.

Q: What about the “IFN-γ … at 10^-6 (10^× µM)” value [8] of the same binder?
A: Its value is 50 pg/mL.

Q: And the “IFN-γ … at 10^-7 (10^× µM)” value [8]?
A: The value was 42 pg/mL.

Q: What about the “IFN-γ … at 10^-8 (10^× µM)” value [8] of the same binder?
A: The value was 50 pg/mL.

Q: What about the “IFN-γ … at 10^-9 (10^× µM)” value [8] of the same binder?
A: The value was 50 pg/mL.

Q: And the “IFN-γ … at 10^-10 (10^× µM)” value [8]?
A: Its value is 48 pg/mL.

Q: And the “IFN-γ … at 10^-11 (10^× µM)” value [8]?
A: Its value is 55 pg/mL.

Q: And the “IFN-γ … at 10^-12 (10^× µM)” value [8]?
A: The value was 47 pg/mL.

Q: And the “IFN-γ … at 10^-13 (10^× µM)” value [8]?
A: The value was 68 pg/mL.

Q: What about the “IFN-γ … at 10^-6 (10^× µM)” value [9] of the same binder?
A: Its value is 43 pg/mL.

Q: And the “IFN-γ … at 10^-7 (10^× µM)” value [9]?
A: The value was 40 pg/mL.

Q: And the “IFN-γ … at 10^-8 (10^× µM)” value [9]?
A: Its value is 46 pg/mL.

Q: And the “IFN-γ … at 10^-9 (10^× µM)” value [9]?
A: Its value is 41 pg/mL.

Q: And the “IFN-γ … at 10^-10 (10^× µM)” value [9]?
A: Its value is 53 pg/mL.

Q: And the “IFN-γ … at 10^-11 (10^× µM)” value [9]?
A: The value was 43 pg/mL.

Q: What about the “IFN-γ … at 10^-12 (10^× µM)” value [9] of the same binder?
A: Its value is 49 pg/mL.

Q: And the “IFN-γ … at 10^-13 (10^× µM)” value [9]?
A: The value was 49 pg/mL.

Q: What about the “IFN-γ, PBL + Cos7/A11 minigene transfectant” value [1] of the same binder?
A: Its value is 11100 pg/mL.

Q: And the “IFN-γ, PBL + Cos7/A11 minigene transfectant” value [2]?
A: The value was 41 pg/mL.

Q: What about the “IFN-γ, PBL + Cos7/A11 minigene transfectant” value [3] of the same binder?
A: Its value is 38 pg/mL.

Q: And the “IFN-γ, PBL + pulsed Cos7/A11” value [5]?
A: Its value is 36 pg/mL.

Q: And the “IFN-γ, PBL + pulsed Cos7/A11” value [6]?
A: The value was 39 pg/mL.

B3: TRAV4-4/DV10*01/BV12-2*01 murine anti-KRAS G12D TCR (SEQ ID NOs: 157 and 158) (TCR, V domains shown)
V domain 1: GDQVEQSPSALSLHEGTDSALRCNFTTTMRSVQWFRQNSRGSLISLFYLASGTKENGRLKSAFDSKERRYSTLHIRDAQLEDSGTYFCAADSSNTGYQNFYFGKGTSLTVIP
V domain 2: NSGVVQSPRYIIKGKGERSILKCIPISGHLSVAWYQQTQGQELKFFIQHYDKMERDKGNLPSRFSVQQFDDYHSEMNMSALELEDSAVYFCASSLTDPLDSDYTFGSGTRLLVIE
Q: What does the source list for B3?
A: IFN-γ, PBL + Cos7/A11 pulsed at 10^-6 M [10]: 54 pg/mL; IFN-γ, PBL + Cos7/A11 pulsed at 10^-7 M [10]: 53 pg/mL; IFN-γ, PBL + Cos7/A11 pulsed at 10^-8 M [10]: 59 pg/mL; IFN-γ, PBL + Cos7/A11 pulsed at 10^-9 M [10]: 54 pg/mL; IFN-γ, PBL + Cos7/A11 pulsed at 10^-10 M [10]: 51 pg/mL; IFN-γ, PBL + Cos7/A11 pulsed at 10^-11 M [10]: 48 pg/mL; IFN-γ, PBL + Cos7/A11 pulsed at 10^-12 M [10]: 52 pg/mL; IFN-γ, PBL + Cos7/A11 pulsed at 10^-13 M [10]: 51 pg/mL; IFN-γ, PBL + Cos7/A11 pulsed at 10^-6 M [11]: 131 pg/mL; IFN-γ, PBL + Cos7/A11 pulsed at 10^-7 M [11]: 60 pg/mL; IFN-γ, PBL + Cos7/A11 pulsed at 10^-8 M [11]: 47 pg/mL; IFN-γ, PBL + Cos7/A11 pulsed at 10^-9 M [11]: 53 pg/mL; IFN-γ, PBL + Cos7/A11 pulsed at 10^-10 M [11]: 53 pg/mL; IFN-γ, PBL + Cos7/A11 pulsed at 10^-11 M [11]: 52 pg/mL; IFN-γ, PBL + Cos7/A11 pulsed at 10^-12 M [11]: 58 pg/mL; IFN-γ, PBL + Cos7/A11 pulsed at 10^-13 M [11]: 51 pg/mL; IFN-γ, PBL + Cos7/A11 pulsed at 10^-6 M [12]: 56 pg/mL; IFN-γ, PBL + Cos7/A11 pulsed at 10^-7 M [12]: 57 pg/mL; IFN-γ, PBL + Cos7/A11 pulsed at 10^-8 M [12]: 51 pg/mL; IFN-γ, PBL + Cos7/A11 pulsed at 10^-9 M [12]: 51 pg/mL; IFN-γ, PBL + Cos7/A11 pulsed at 10^-10 M [12]: 54 pg/mL; IFN-γ, PBL + Cos7/A11 pulsed at 10^-11 M [12]: 50 pg/mL; IFN-γ, PBL + Cos7/A11 pulsed at 10^-12 M [12]: 44 pg/mL; IFN-γ, PBL + Cos7/A11 pulsed at 10^-13 M [12]: 54 pg/mL
